# Molecular target: the molecule itself
# Assay: SEC-MALS of purified IpaB in solution (self-association)
protein,measurement,value
"Invasion Plasmid Antigen B (IpaB), wild type, full length (other, also called WT IpaB; IpaB WT; not shown: histidine tag) MHNVNTTTTGLSLAKILASTELGDNTIQAGNDAANKLFSLTIADLTANKNINTTNAHSTSNILIPELKAPKSLNASSQLTLLIGNLIQILGEKSLTALTNKITAWKSQQQARQQKNLEFSDKINTLLSETEGLTRDYEKQINKLKNADSKIKDLENKINQIQTRLSELDPDSPEKKKLSREEIQLTIKKDAAVKDRTLIEQKTLSIHSKLTDKSMQLEKEIDSFSAFSNTASAEQLSTQQKSLTGLASVTQLMATFIQLVGKNNEESLKNDLALFQSLQESRKTEMERKSDEYAAEVRKAEELNRVMGCVGKILGALLTIVSVVAAAFSGGASLALADVGLALMVTDAIVQAATGNSFMEQALNPIMKAVIEPLIKLLSDAFTKMLEGLGVDSKKAKMIGSILGAIAGALVLVAAVVLVATVGKQAAAKLAENIGKIIGKTLTDLIPKFLKNFSSQLDDLITNAVARLNKFLGAAGDEVISKQIISTHLNQAVLLGESVNSATQAGGSVASAVFQNSASTNLADLTLSKYQVEQLSKYISEAIEKFGQLQEVIADLLASMSNSQANRTDVAKAILQQTTA",binding result,binds
